The source of these data is publication PMC3159451.

Some targets named below: cMBD2 MBD WT (Gallus gallus (chicken), UniProt Q5EFL0 2-71); cMBD2 MBD R46C (Gallus gallus (chicken), UniProt Q5EFL0 2-71, R45C); cMBD2 MBD K32A (Gallus gallus (chicken), UniProt Q5EFL0 2-71, K31A); cMBD2 MBD R67M (Gallus gallus (chicken), UniProt Q5EFL0 2-71, R66M); cMBD2 MBD Y36F (Gallus gallus (chicken), UniProt Q5EFL0 2-71, Y35F); cMBD2 MBD K19W (Gallus gallus (chicken), UniProt Q5EFL0 2-71, K18W).

Holding throughout (test): SPR

B1: Thy104Gua (dsDNA)
DNA 1: GGAGCGGCTC
DNA 2: GAGCCGCTCC
modifications: 5-methyl-C at position 5 of both strands
In the case of B1, in the data set with cMBD2 MBD WT, the Kd (in general, a measure of binding affinity in units of concentration) is 2.2 ± 0.1 µM.

B2: rho-globin mCpG WT 10 bp (dsDNA)
DNA 1: GGATCGGCTC
DNA 2: GAGCCGATCC
modifications: 5-methyl-C at position 5 of both strands (mC105, mC115)
On to B2, for which the Kd with cMBD2 MBD WT is 2.1 ± 0.1 µM; with cMBD2 MBD R46C, 590 ± 71 µM; with cMBD2 MBD K32A it was 291 ± 19 µM; in the data set with cMBD2 MBD R67M, 197 ± 17 µM; with cMBD2 MBD Y36F it was 109 ± 3 µM; with cMBD2 MBD K19W, 135 ± 17 µM.

B3: Gua107Thy (dsDNA)
DNA 1: GGATCGTCTC
DNA 2: GAGACGATCC
modifications: 5-methyl-C at position 5 of both strands
Regarding B3, binding with cMBD2 MBD WT was put at a Kd of 29 ± 2 µM.

B4: Inverted (dsDNA)
DNA 1: GGACCGACTC
DNA 2: GAGTCGGTCC
modifications: 5-methyl-C at position 5 of both strands
As for B4, in the data set with cMBD2 MBD WT, the Kd worked out at 2.3 ± 0.5 µM.
